Data: the DeepSol protein solubility set

Test: soluble on expression in E. coli; label from the status in PepcDB or PDB records

| Sequence | soluble on expression in E. coli |
| --- | --- |
| MGNMWGKNRGAVERFQTRREALFDDFKSRSAPASLVNNPRIVKGNETAEQIETTFNEILKLDLIALKSALQTDKYNAYTVLCAFVWRAIDVNSEINCITEVIREAFNTAEALDDNYAQTGEKGQLFGLPFSVKSNFYMENYDVTVGLAKLLEQPKTTTCPMVQFLSDQGAVPFCLTNVPQGLLSYVSSNPIYGTTKNPWDFSRTPGGSSGGEAALLAAGGAAFGIGSDLAGSLRIPAAFCGLVTLKPTQDRLCVTDTHGGLPGRGRLGLSFGFYTRSVKEQEFLLGLIVGRSEYLELCPMSSPAKLEKHIEKDQKLVIGWFVDDGFNPVVPSNRRAVEETVKSLQAKGHQVVELKLADVSEEFPPFAVADMLFRNVMPDNGAYMSEMYAGEQYDEHMKLFIRLVCLKQNFLVSFLLRYGVMPFAKLALSKRLACIGSAYNSDLAACRQNQENTDSYKLQWIRYWKSKKIDALICPSFITPAQPFEYPAQLSNGAFITGLFNMLDVPAGVVPVSPVNQKDVDQLIDGFSTEGDLLLKKQREAARGTTGLPNAVQVVTLPNCEEMCLRVMRLVEESAEGVQRLQWRVGASAAPIDVENTPAGVVSSLEHFERVNLLH | not soluble |
| MAHHHHHHMSSPQVVCEAKKAFEANKRVYESVLLTFKGVDGYDVYNCSVPFSYKGKTHIYGRVEKRDIWAASHVRLFEETGKDEFTAVPDGMTWLLEDPFVSSVKGEALFGGTRIRKVSNRLLSYYCDFFRGGIEQGLYFTTGPDNMKDIRCVELANGSIGVFSRPKTDVYTCIGFTIIDDLSELTQKVINEAEPLNVLHPGAWGGVNQAYLLTSGKVGCIAHYSYNSKDDKDCPTSVYLNYSFVLDPETKQAEMERIIGTRSCYPDYPVKAERLIDCAFSSGIVMREDGKCDLYSGLGDTCEGRIAIDYPFEGYGAVVDQLSF | soluble |
| MFAMTSIAVIGGGKIGEALISGLVASGMSPKDIHVTNRNAERAQELKERYGVLTFLENIAAVDDVDMVFLCVKPQQVIPVVEEIADVVDNNTSTTIVSMAAGVTNAMIEESLAAGSPVIRVMPNTPMLVGKGMSVVAPGRYADEDTVASLTQLLEAVGSVEVIEESSMDAVVALSGSSPAYLFLMVEALIDAGVFLGLPRDKAKNLAVSSFAGAATMLEQTGEEPAVLRANVSSPGGTTIAAIREFEESGLRAAVYRAATAAATRNSSLG | not soluble |
| MGSDKIHHHHHHVREVSKEKGKIDLVSGAASTPLTNDKCSPTGFHWTYDTYALANGTGNAVVKNGGKTWFFLTADYAFGHNLQAQTEKVVKANGGEVKGAVKHPFPNSDFSSFLLQAQASGAQIIGLANAGADTINAIKQAKEFGITQAGQQLAGLLVFITDIHSLGLETAQGMMLTTGFYWDMDDQTRAWSKRWSEKMGNGKMPSMVHAGTYSQVLHYLRAAAAAKTDEGIKVADEMRKLPINDFFAKNGKIRADGRMVHDMYLAQVKKPSESKGPWDYYKIVRTIPGDEAYQPLSESTCSLVKK | not soluble |
| AHHHHHHGSYRIKDEWGEFLVRLARRAIEEYLRTGREIEPPKDIPPELWEKMGVFVTLNRHNVPPQAALRGCIGFPLPIYPLVKATIKAAIYAAVDDPRFPPVKLEEMNNIVVEVSVLTPPELIEGPPEERPKKIKVGRDGLIVEKGIYTGLLLPQVAVEWGWDEEEFLAETCWKAGLPPDCWLDEDTKVYKFTAEIFEEEYPRGPVKRKPLIPQSQD | soluble |
| TVPITSAKAAELPPGNYRLVVFELENFQGRRAEFSGECSNLADRGFDRVRSIIVSAGPWVAFEQSNFRGEMFILEKGEYPRWNTWSSSYRSDRLMSFRPIKMDAQEHKISLFEGANFKGNTIEIQGDDAPSLWVYGFSDRVGSVKVSSGTWVGYQYPGYRGYQYLLEPGDFRHWNEWGAFQPQMQSLRRLRDKQWHLEGSFPVLATEPPK | soluble |
| MKAVTTSPSDPPDPFDPLDPVDPLASTKPEVDVVLPCLDEADALPWVLARIPPGWRALVVDNGSTDGSAEIARRLGATVVPETRRGFGAACHAGLTAATADIVCFCDCDGSLDPSLLVPFVREVRDGAADLVLGRRRPHGRGAWPAHARAGNLALARMLRRRTGLRLHDLGPLRAARREPLLALGLTDRRSGYPLQMVVRAADAGWRIAEHDVPYLPRTGVSKVTGTWRGTWQAVRDMSRVLAEPAQDGPPESGSLSSSQGGSSQLEHHHHHH | not soluble |
| MAHHHHHHMRSISTGSGANLQKPSWIAQLCSDAQKSEKTISCDVKVYDELSWRRRRFSFDKELWDPARMSSIVRRRLCLGNEEAEYTVIGEAFAFADREDSPVVNEPQHSCKLLWDHNSSVEKLLIQISDHFPPLLWYAVKPTLESLKRIFSEFLDVDAEHMKKNLPYYESVQNAMETSTQERLGVTLSPTSVKDRFVADMRRRDPKDLELDYPCEYSVFLGTSPHFRLVEDRMMKSNPFVFGWPLLLSDGNEHLDGTPLRMAAFRTVYSKSLLMFHTRLDLQVDHRLASSEAGEETLLDVPIFCNINYPKNTRLCGGKPLVQRFNTVMGTTYPLDTPVDILAALAKEQCVKGPNELLEELRFLTAAAERAPDEERVFRISDDQLSANRIVGQLAYTIIYVALVNYDRFIKDVFDVYKTHRSDMVRVACARGASIVGRPDLIEQLISAEREGPCKNMLRGVVTTP | not soluble |
| SLEKRQGLEDIGRVRATIKNEFPSLTLLTQDWGDWDETYKFSQNHNQEYLEANVPSLTTLSKSTKIDFLALYDLNAIELFKGAYHPDMEREVNLHSTPSIRSLVASVLKTNREKKGLFKTDEGLLALVARPILTSEGRGPSHGVIIMGRFLSQLLLSSVGKKCPIPFELFIQDDKRLSAPEKALFAKLSATAPRFTPVFHQGFVYQTYPDIE | not soluble |
| MRVREPAVAGTFYPKDKEELNKLMDLLCGFEPKEKIKPKAILVPHAGYIYSGKTACEVYKRIEIPEKVVLLGPNHTGLGKPISVYSGDAWETPYGVVEIDGELREKILKYPYANPDEYAHLYEHSLEVQLPFLQRYARREFKILPIVVTFVEYEVAKDFGRFLGEVLKEEDALIVISSDMSHYVPAEEARKKDEILISAMERLNTEELYFKAVQYNITMCGVVPAVVGIESAKVLGATKGIVVDYSNSGDTTGDYSQVVAYLGMIFLLEHHHHHH | not soluble |
| MSTAETAVAPVDYRTDPSQYKHWKLSFNGPVATLGIDIAEDGGIRDGYKLKLNSYDLGVDIELHDAIQRIRFEHPEVRTVVLTSLKDRVFCSGANIFMLGLSTHAWKVNFCKFTNETRNGLEDSSRHSGLKFLAAVNGACAGGGYELALACDEIYLVDDRSSSVSLPEVPLLGVLPGTGGLTRVTDKRKVRHDRADIFCTVVEGVRGERAKAWRLVDEVVKPNQFDQAIQARALELAAQSDRPAHAQGVPLTRIERTDREDGLTYKTLDVTIDRAKRIATFTAKAPQTEPPASIDAIVAAGANWWPLKFAREFDDAILSMRTNELAVGTWVFRTEGDARHLLAADASLMQHKDHWFVRETIGLLRRTLARIDVSSRSLFALIEPGSCFAGTFAELAFAADRTYMAALPANEDEEPAITLSEVNFGLYPMVTHQSRLARRFYEETEPLDAVRSRIGQAIKPVEAERLGLVTASPDDIDWADEIRIALEERAAMSPDALTGLEANLRFNGPETMETRIFGRLTAWQNWIFNRPNAVGEKGALKVYGKGSKAQFDVSRV | soluble |
| MAHHHHHHMKRSRFDGKAPSFAPAVTMHPQQQQRIEERGANNRVVVNSPYGCSRARYGWGMPFHTPLLAYVPGCPAIHIGISSLSGVPGRDRRMKTLFAQYAKKFNSLEHCYTFHNMGEETMWKNWRDMCASQLVASSSHSPASLGCVQTSDNGNQKSPPFIFSIKANQYLTHTRMLAIDDKSEEHIMHFFVNRCSILGRHLGPVLLQLPPQFQKNHVNMERIEAVAARIPKAFSVAVEFRHRSWYDEGVYALLRRLGWALVVAHHHDDPTASVHVDTGVDFMYVRLHGPIGLHIGDYGPVILSQWAERVVDYICGGVVSAAAADQSQPMAVNAHGREVYFFFNNSDSHVGGTTSSTVDATFLAQRVGELLAEKSRSCMVADSQSNSCSDVDVVTIISE | soluble |
| MKKLVHLSDFHYDGLRLSEEMLAEAIAVSNQVQPDLVLLTGDYVTTTPQPIHQLAKRLQKLQSHAGIYAILGNHDLYQKNSKTEITQALTKAGIQVLWNEIAYPLGEELPIVGIVDYYYREFNPQLLFNQLEPTTPRIVLCHNPDTAAMLQGWRVDLQLSGHTHGGLEHHHHHH | not soluble |
| MAHHHHHHMSEREHDETPVTAEGSAAAHEGSNMDLNGNESRASYIKTDLGELNMIESMCPKCQETGTTRLMITSIPHFKEIIVSSFECQHCGEVNNEVAFGGTFGPKRVRYELQVRSKQDLDRQVVKSEFATIAIPELELEIPPESQKGNLNTIEGVLEQTYSGLQLQQPLRKIQHPDVYEKIEAFCAKLASFRSGDVPFTLTLDDPAGNSYIEPIHDYYHPTLDPQLTKYEKERTEIDRQLLGIALDYNTERTQEEEKDVEEGQFSDVTQILCDCPACRRPGYIMMHECDIPYFKQTIIMAFKCEYCGYKSNEIKAGGEINAKGLRLVLHVTSEADLKRDVLKSDTATLIIPEVRLELAPGTLGGFFSTVEGTITQVRDQLMNLPQAAFAAGDSADDNSKTMLEFVKELDELLALREEFTFILDDPLGNVYIQNPCSHLPPPDDVDPKLEREEYTRTEEQDEELGILSMRHNEGQAGIEKSEDEADHEGEERNGAAAEEQETQQ | soluble |
| MGHHHHHHSHYHVYWLEMVLFYRAHFGTDETILDGKEYDIYVSYARNAEEEEFVLLTLRGVLENEFGYKLCIFDRDSLPGGIVTDETLSFIQKSRRLLVVLSPNYVLQGTQALLELKAGLENMASRGNINVILVQYKAVKETKVKELKRAKTVLTVIKWKGEKSKYPQGRFWKQLQVAMPVKKSPRRSSS | soluble |
| MGSDKIHHHHHHMKTRESSVGLKFRKFNRFYTNVLGFLNEHIYDSPFSLTETRILFEIYNTPNCTAKALQDKLGLDRGYVSRIVKQFEKEDLIYKQRSKDDARHHYIFVTETGKTIYKKLEEKANEQVELMLKVINQKEQHKLAEAMAEIEAILSQSLSARASEISIRDYFLSEDLQLLIEKQRQFYAEAHGWDDTFLAYLQETFDADIEKIWIAESGGKFAGSVGLVKHDEKTVQLRWFLVDADFRGRGLGTQLLEHLVAYCQDMKFDRIFLWTVSTMAEARPLYKKFGFRISEVKQEAPLWGQQLTEERWDLELS | not soluble |
| MDRTTGKPLVGIEHLRQSIIDILSTRIGTRVMRRDYGSRIAELIDAPVNSSFSIALYAAVAEALDKWEPRFKLKKIDFKMLGTGQVSLSFEGMYLPSGKPITMEGLLIQ | not soluble |
| MRLNHNSYEIFDFMRSRSAIGVLSKIIITIPPINLRMIIGVMGPEGSYSERAAKLWARKNGLRGAEFHYFADIEDAFLAAVGGKTDISVVPVENSIEGSVGVTLDLLLENEAVIIGEIVVKIEHCLLSKGEPEKIRVILSHPQGLAQCRHFLKTHFPEAELRSTGSTSHAARLAGEFEEMAAIASPEAAERYGLKILLSNVQDRKENHTRFIVVRGGEKVLSGKIKGKADSGEKLNTVFGRNAEHKLCSETETGTENSSSYAFKTSLIVYLEKDRPGALYEPLGFFAKRGINLTKIESRPSKKELGDYYFYIDLEGNISDVLIKDALEDIKSKASKKSRSSTLKVLGSYPAFKK | not soluble |
| MRALILGGTGEGRDVAAILHVAGWRVTSSLAGRVSNPKLPVGEVRIGGFGGPAGLTQWLLREGVEVIIDATHPFAERISASAAEASRATGIPLIALHRPEWKPRPRDRWIPVTSMQEAADKAARDYHHIFLTIGRQQLAPFAHDAHNLYVVRAVEPPQVALPQRHRLILSRGPFTLESEKKLMIDNQIDCVVTKNSGGPLTHAKLDAARDLGIDVVMVQRPQLPKVTHVATSAAEVAEIIDSL | not soluble |
| MISDIRKDAEVRMDKCVEAFKTQISKIRTGRASPSLLDGIVVEYYGTPTPLRQLASVTVEDSRTLKINVFDRSMSPAVEKAIMASDLGLNPNSAGSDIRVPLPPLTEERRKDLTKIVRGEAEQARVAVRNVRRDANDKVKALLKDKEISEDDDRRSQDDVQKLTDAAIKKIEAALADKEAELMQF | soluble |
